Tests used:
[1] = molecular target: MUC1 peptide-biotin (cat#353951, American Peptide Company); test: ELISA at 2 ug/ml mAb (IgM), MUC1 peptide-biotin on NeutrAvidin; PBS background 0.12
[2] = molecular target: MUC1 peptide-biotin (cat#353951, American Peptide Company); test: ELISA at 2 ug/ml mAb, MUC1 peptide-biotin on NeutrAvidin; PBS background 0.08

ELISA signal (unit not given) [1]	ELISA signal (unit not given) [2]	Binder
0.09	–	human anti-GD2 monoclonal antibody 2E12 (antibody, human IgM, V domains shown) VH: QVQLLESGAEVKKPGASVKVSCKASGYTFTSYAMHWVRQAPGQRLEWMGWINAGNGNTIYSQKFQARVTITRDTSASTAYMELSSLRSEDTAVYYCARWVGGVASYFDYWGQGTLVTVSS VL: EIVLTQSPLSLSVTPGEPASISCRSSQSLLHRNGYNYFDWYLQQPGQSPQLLIYLGSNRASGVPDRFSGSGSGTDFTLKISRVEAEDVGVYYCMQALQTPYTFGQGTKLEIK
–	0.08	human anti-GD2 monoclonal antibody 31F9 (antibody, human IgG1, V domains shown) VH: QVQLLESGAEVKKPGASVKVSCEASGYTFTSSDINWVRQATGQGLEWMGWMNPNSGNTGYAQKFQGRVTMTRNTSISTAYMELSSLRSEDTAVYYCARERPRRRGGGFDIWGQGTMVTVSS VL: DIRMTQSPSSLSASVGDRVTITCRASQGISNYLAWYQQKPGKVPKFLIYAASTLQSGVPSRFSGSGSGTDFTLTISSLQPEDVATYYCQKYNSAPWTFGQGTKVEIK

Reference: US20150353645A1
